In patent US20230212319A1, “NOVEL ANTIGEN BINDING DOMAINS AND SYNTHETIC ANTIGEN RECEPTORS INCORPORATING THE SAME” (University of Southern California, priority 2020, published 2023):

B1: CD8SP-BCMA-FHVH-93-G4S-CD19-MOR0028-scFv-hCD8TM-BBZ-T2A-PAC (protein)
chain: ACEVQLLESGGGLIQPGGSLRLSCAASGFTFSSHAMTWVRQAPGKGLEWVSAISGSGDYTHYADSVKGRFTISRDNSKNTVYLQMNSLRAEDSAVYYCAKDEDGGSLLGHRGQGTLVTVSSGTGGGGSGGGGSGGGGSEFINIYNAEPANPSEKNSPEFDIVMTQSPATLSLSPGERATLSCRSSKSLQNVNGNTYLYWFQQKPGQSPQLLIYRMSNLNSGVPDRFSGSGSGTEFTLTISSLEPEDFAVYYCMQHLEYPITFGAGTKLEIKGGGGSGGGGSGGGGSEVQLVESGGGLVKPGGSLKLSCAASGYTFTSYVMHWVRQAPGKGLEWIGYINPYNDGTKYNEKFQGRVTISSDKSISTAYMELSSLRSEDTAMYYCARGTYYYGTRVFDYWGQGTLVTVSSTRTTTPAPRPPTPAPTIASQPLSLRPEACRPAAGGAVHTRGLDFACDIYIWAPLAGTCGVLLLSLVITLYCKRGRKKLLYIFKQPFMRPVQTTQEEDGCSCRFPEEEEGGCELRVKFSRSADAPAYQQGQNQLYNELNLGRREEYDVLDKRRGRDPEMGGKPRRKNPQEGLYNELQKDKMAEAYSEIGMKGERRRGKGHDGLYQGLSTATKDTYDALHMQALPPRSSGSGEGRGSLLTCGDVEENPGPHMTEYKPTVRLATRDDVPRAVRTLAAAFADYPATRHTVDPDRHIERVTELQELFLTRVGLDIGKVWVADDGAAVAVWTTPESVEAGAVFAEIGPRMAELSGSRLAAQQQMEGLLAPHRPKEPAWFLATVGVSPDHQGKGLGSAVVLPGVEAAERAGVPAFLETSAPRNLPFYERLGFTVTADVEVPEGPRTWCMTRKPGA
B2: 22119 (protein)
chain: MALPVTALLLPLALLLHAARPDIQMTQSPSSLSASVGDRVTITCKASDHINNWLAWYQQKPGQAPKLLIYGATTLETGVPSRFSGSGSGTDYTLTISSLQPEDFATYYCQQSWNTPWTFGQGTKLEIKRLEADVSPKPTIFLPSIAETKLQKAGTYLCLLEKFFPDVIKIHWQEKKSNTILGSQEGNTMKTNDTYMKFSWLTVPEKSLDKEHRCIVRHENNKNGVDQEIIFPPIKTDVITMDPKDNCSKDANDTLLLQLTNTSAYYMYLLLLLKSVVYFAIITCCLLRRTAFCCNGEKSRAKRSGSGATNFSLLKQAGDVEENPGPTSATMDWIWRILFLVGAATGAHSGPQVQLQESGGGLAQAGGSLRLSCAASGRTFSMGWFRQAPGKEREFVAAITYSGGSPYYASSVRGRFTISRDNAKNTVYLQMNSLKPEDTAVYYCAANPTYGSDWNAENWGQGTQVTVSSGSGGGGSGGGGSGGGGSFEQVQLQQPGAELVKPGASVKMSCKASGYAFSSYWINWMKQKPGQGLEWIGQIYPGDGDTNYNGKFKGRATLTADTSSSTAYMQLSSLTSEDSAVYFCARSITTVVGCAMDYWGQGTSVTVSSTRPHTKPSVFVMKNGTNVACLVKEFYPKDIRINLVSSKKITEFDPAIVISPSGKYNAVKLGKYEDSNSVTCSVQHDNKTVHSTDFEVKTDSTDHVKPKETENTKQPSKSCHKPKAIVHTEKVNMMSLTVLGLRMLFAKTVAVNFLLTAKLFFLRAKRSGSGVKQTLNFDLLKLAGDVESNPGPSRGHMTEYKPTVRLATRDDVPRAVRTLAAAFADYPATRHTVDPDRHIERVTELQELFLTRVGLDIGKVWVADDGAAVAVWTTPESVEAGAVFAEIGPRMAELSGSRLAAQQQMEGLLAPHRPKEPAWFLATVGVSPDHQGKGLGSAVVLPGVEAAERAGVPAFLETSAPRNLPFYERLGFTVTADVEVPEGPRTWCMTRKPGA
B3: 22110 (protein)
chain: MALPVTALLLPLALLLHAARPQLQLQESGPGLVKPSETLSLTCTVSGDSISSGDYYWGWIRQPPGKGLEWIGHIYYSGVTYYNPSLKSRVTISVDTSRNQFSLKLSSVTAADTAVYYCTREDSSNWRSRGQGTLVTVSSGTGGGGSGGGGSGGGGSEFDIQMTQSPSSLSASVGDRVTITCKASDHINNWLAWYQQKPGQAPKLLIYGATTLETGVPSRFSGSGSGTDYTLTISSLQPEDFATYYCQQSWNTPWTFGQGTKLEIKRLEDLKNVFPPEVAVFEPSEAEISHTQKATLVCLATGFYPDHVELSWWVNGKEVHSGVCTDPQPLKEQPALNDSRYCLSSRLRVSATFWQNPRNHFRCQVQFYGLSENDEWTQDRAKPVTQIVSAEAWGRADCGFTSESYQQGVLSATILYEILLGKATLYAVLVSALVLMAMVKRKDSRGRAKRSGSGATNFSLLKQAGDVEENPGPTSMDWIWRILFLVGAATGAHSFEQVQLQQPGAELVKPGASVKMSCKASGYAFSSYWINWMKQKPGQGLEWIGQIYPGDGDTNYNGKFKGRATLTADTSSSTAYMQLSSLTSEDSAVYFCARSITTVVGCAMDYWGQGTSVTVSSTRIQNPDPAVYQLRDSKSSDKSVCLFTDFDSQTNVSQSKDSDVYITDKCVLDMRSMDFKSNSAVAWSNKSDFACANAFNNSIIPEDTFFPSPESSCDVKLVEKSFETDTNLNFQNLSVIGFRILLLKVAGFNLLMTLRLWSSRAKRSGSGVKQTLNFDLLKLAGDVESNPGPSRGHMTEYKPTVRLATRDDVPRAVRTLAAAFADYPATRHTVDPDRHIERVTELQELFLTRVGLDIGKVWVADDGAAVAVWTTPESVEAGAVFAEIGPRMAELSGSRLAAQQQMEGLLAPHRPKEPAWFLATVGVSPDHQGKGLGSAVVLPGVEAAERAGVPAFLETSAPRNLPFYERLGFTVTADVEVPEGPRTWCMTRKPGA

What was measured:
Type in all cases: cell-based
[1] = tested on: RAJI cells; test: JNG assay, co-culture with RAJI cells; conditions: co-culture with Raji; for NFAT-GFP ASSAY: Raji: JNG cells expressing construct
Summary of the method: (§1)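 Jurkat NFAT-GFP (JNG) cells stably transduced with SARs by lentivirus, with drug selection where the construct carried a resistance gene, then co-cultured with target cells at E:T ~1:2 for ~4–18 h. % GFP-positive cells measured by FACS against parental JNG; +/- to 5+ correspond to ~5–50% GFP-positive.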

[2] = tested on: RAJI-CD19-KO cells; test: JNG assay, co-culture with RAJI-CD19-KO cells; conditions: co-culture with Raji-CD19-KO
Summary of the method: as §1

[3] = tested on: RS;411; test: JNG assay, co-culture with RS;411 cells; conditions: co-culture with RS411
Summary of the method: as §1

Molecule	NFAT-GFP ASSAY (JNG): GFP induction, Raji [1]	NFAT-GFP ASSAY (JNG): GFP induction, Raji-CD19-KO [2]	NFAT-GFP ASSAY (JNG): GFP induction, RS411 [3]	NFAT-GFP ASSAY: Raji [1]	NFAT-GFP ASSAY: Raji-CD19-KO [2]	NFAT-GFP ASSAY: RS411 [3]
B1	4+ (refer to approximately 5%, 10%, 20%, 30%, 40% and 50% GFP positive cells)	3+ (refer to approximately 5%, 10%, 20%, 30%, 40% and 50% GFP positive cells)	5+ (refer to approximately 5%, 10%, 20%, 30%, 40% and 50% GFP positive cells)			
B2				4+ (refer to approximately 5%, 10%, 20%, 30%, 40% and 50% GFP positive cells)	3+ (refer to approximately 5%, 10%, 20%, 30%, 40% and 50% GFP positive cells)	3+ (refer to approximately 5%, 10%, 20%, 30%, 40% and 50% GFP positive cells)
B3				5+ (refer to approximately 5%, 10%, 20%, 30%, 40% and 50% GFP positive cells)	4+ (refer to approximately 5%, 10%, 20%, 30%, 40% and 50% GFP positive cells)	4+ (refer to approximately 5%, 10%, 20%, 30%, 40% and 50% GFP positive cells)
